This note sets out measurements from paper PMC5627276.

Assay [1] addresses bRSV F 391-2 DS-Cav1 (bovine respiratory syncytial virus, strain 391-2 | bacteriophage T4). Kind of assay: SEC; after nickel and Strep-Tactin affinity columns and cleavage of the C-terminal affinity tags; SEC in PBS. A general note: Size exclusion chromatography separates by hydrodynamic size, large species first.
The target is the same in assay [2]. Description: negative stain EM; about 0.01 mg/ml, 10 mM HEPES pH 7.0, 150 mM KCl, 0.75% uranyl formate; reference-free 2D class averaging.
Assay [3] deals with bRSV F ATue51908 DS-Cav1 (bovine respiratory syncytial virus, strain ATue51908 | bacteriophage T4). Kind of assay: SEC; after nickel and Strep-Tactin affinity columns and cleavage of the C-terminal affinity tags; SEC in PBS.
The target is the same in assay [4]. Description: negative stain EM; about 0.01 mg/ml, 10 mM HEPES pH 7.0, 150 mM KCl, 0.75% uranyl formate; reference-free 2D class averaging.
The target in assay [5] is bRSV F DS2-v1 (391-2 sc9 DS-Cav1 Q98C Q361C) (bovine respiratory syncytial virus, strain 391-2 | bacteriophage T4). Kind of assay: SEC; after nickel and Strep-Tactin affinity columns and cleavage of the C-terminal affinity tags; SEC in PBS.
The target is the same in assay [6]. Kind of assay: negative stain EM; about 0.01 mg/ml, 10 mM HEPES pH 7.0, 150 mM KCl, 0.75% uranyl formate; reference-free 2D class averaging.
The target of assay [7] is bRSV F DS2-v33 (391-2 sc9-10 DS-Cav1 Q98C Q361C) (bovine respiratory syncytial virus, strain 391-2 | bacteriophage T4). Kind of assay: SEC; after nickel and Strep-Tactin affinity columns and cleavage of the C-terminal affinity tags; SEC in PBS.
Assay [8] has the same target. Kind of assay: negative stain EM; about 0.01 mg/ml, 10 mM HEPES pH 7.0, 150 mM KCl, 0.75% uranyl formate; reference-free 2D class averaging.
Assay [9] addresses bRSV F DS2-v35 (ATue51908 sc9-10 DS-Cav1 A149C Y458C) (bovine respiratory syncytial virus, strain ATue51908 | bacteriophage T4). Description: SEC; after nickel and Strep-Tactin affinity columns and cleavage of the C-terminal affinity tags; SEC in PBS.
Assay [10] has the same target. Kind of assay: negative stain EM; about 0.01 mg/ml, 10 mM HEPES pH 7.0, 150 mM KCl, 0.75% uranyl formate; reference-free 2D class averaging.
Assay [11] deals with bRSV F RB94 DS-Cav1 (bovine respiratory syncytial virus, strain RB94 | bacteriophage T4). Kind of assay: SEC; after nickel and Strep-Tactin affinity columns and cleavage of the C-terminal affinity tags; SEC in PBS.
Assay [12] shares this target. Kind of assay: negative stain EM; about 0.01 mg/ml, 10 mM HEPES pH 7.0, 150 mM KCl, 0.75% uranyl formate; reference-free 2D class averaging.

In general, stoichiometry N refers to a count of units in the complex or per binding partner. As to “bRSV F 391-2 DS-Cav1 (domain or fragment)”, the stoichiometry N in assay [1] and in assay [2] was 3 each time.
“bRSV F ATue51908 DS-Cav1 (domain or fragment)”: the stoichiometry N in assay [3] and in [4] was 3 each time.
Take “bRSV F DS2-v1 (391-2 sc9 DS-Cav1 Q98C Q361C) (domain or fragment)”: the stoichiometry N in assay [5] and in assay [6] was 3 in each case.
With “bRSV F DS2-v33 (391-2 sc9-10 DS-Cav1 Q98C Q361C) (domain or fragment)”, the stoichiometry N in assay [7] and in assay [8] was 3 in each case.
In the case of “bRSV F DS2-v35 (ATue51908 sc9-10 DS-Cav1 A149C Y458C) (domain or fragment)”, the stoichiometry N in assay [9] and in assay [10] was 3 throughout.
“bRSV F RB94 DS-Cav1 (domain or fragment)”: the stoichiometry N in assay [11] and in assay [12] was 3 in each case.
